Measurements from US20050118651A1.

Legend:
[1] = biological target: synthetic Aβ1-42 peptide (aggregated in the ELISAs) (human) (UniProt P05067); test: ELISA on aggregated synthetic Aβ1-42; given as ED50
[2] = biological target: soluble [125I]Aβ1-42 (synthetic Aβ1-42 sonicated in DMSO, radio-iodinated) (human) (UniProt P05067); test: capture radioimmunoassay, 50,000 CPM of 125I-Aβ1-42 (or 125I-Aβ1-40), antibody at 10 µg/ml

Substance | EC50 [1] [nM] | % of radioactive counts bound at 10 µg/ml [2] [%]
antibody 12B4 (IgG2a) | 0.667 | 7
antibody 10D5 (IgG1) | 0.053 | 2
